The nature of this series: yeast display, Sf9 membrane polyspecificity reagent, FACS + sequencing; frameworks hold sequencing errors. The essentials:
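Polyreactivity labels are assigned by the sorting gate from which each nanobody was recovered. The gates were low and high (top ~1%), set on anti-HA fluorescence for expression and streptavidin fluorescence for reagent binding. Before sorting, galactose-induced (36–48 hours) yeast display cells were stained for 1 hour at 4 °C with 10% biotinylated, detergent-solubilized Sf9 membrane reagent.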
With “QVQLVESGGGLVQAGGSLRLSCAASGITFSANAMGWYRQAPGKERELVATITWSGGSTYYADSVKGRFTISRDNAKNTVYLQMNSLKPEDTAVYYCNARSYDEYPYYSYNYWGQGTQVTVSS”, the “polyreactivity (PSR sort gate)” value is “low polyreactivity”.
In the case of “QDQLVESGGGLVQAGGSLRLSCAASGYIFLRNAMGWYRQAPGKERELVATISRTGRTNYADSVKGRFTISRDNAKNTVFLHMNSLKPEDTAVYYCAAASVFGRIRLWYDYWGQGTQVTVSS”, the “polyreactivity (PSR sort gate)” value is reported as “high polyreactivity”.
As to “QVQLVESGGGLVQAGGSLRLSCAASGRTFKYYAMGWYRQAPGKERELVASITRGSSTNYADSVKGRFTISRDNAKNTVYLQMNSLKPEDTAVYYCATGPGRALPRPTSAYYYWGQGTQVTVSS”, the “polyreactivity (PSR sort gate)” value is “high polyreactivity”.
With “QVQLVESGGGLVQAGGSLRLSCAASGFIFSSNAMGWYRQAPGKERELVARITWSDGSTYYADSVKGRFTISRDNAKNTVYLQMNSLKPEDTAAYYCAKGRDATHYEYYLYSMDYWGQGTQVTVSS” the entry was “low polyreactivity”; with “QVQLVESGGGLVQAGGSLRLSCAASGLTFIYNAMGWYRQAPGKERELVAAISGNGGDTYYADSVKGRFTISRDNAKNTVYLQMNSLKPEDTAVYYCAADYAYTPITWDEYWGQGTQVTVSS”, “low polyreactivity”; with “QVQIVESGGGLVQAGGSLRLSCAASGSIFITYAMGWYRPAPGKERELVAAIRDSGDRTYYADSVKGRFTISRDNAKNTVYLQMNSLKPEDTAVYYCNARWQEPLKYDYWGQGTQVTVSS”, “low polyreactivity”.
With “QVQLVESGGGLVQAGGSLRLSCAASGSIFQYNAMGWYRQAPGKERELVAAINGGGSTYYADSEKGRFTISRDNAKNTVYLQMNSLKPEDTAVYYCAADGGAYSYRGPGKFGIEDSWGQGTQVTVSS” the entry was “low polyreactivity”.
With “QVQLVESGGGLVQAGGSLRLSCAASGSIFKVNTMGWYRQAPGKERELVAAISYSGGSTYYADSVKGRFTISRDHAKNTVYLQMNSLKPEDTAVYYCNVSPTTSGDGGGYDSWGQGTQVTVSS”, the “polyreactivity (PSR sort gate)” value is “low polyreactivity”.
In the case of “QVQLVESGGGLVQAGGSLRISCAASGRIFNINAMGWYRPAPGKERELVAAITWRSGSTYYADSVKGRFTISRDNAKNTVYLHMNSLKPEDTAVYYCAADFSQTRRPIRFYYWGQGSQVTVSS” it was “high polyreactivity”.
For the sequence “QVQLVESGGGLVQAGGSLRLSCAASGSIYVSYAMGWYRQAPGKERELVATITTSTGSTYADSVKGRFTISRDNAKNTVYLQMNSLKPEDTAVYYCAARYQPWLNDDFDSWGQGTQVTVSS”, the “polyreactivity (PSR sort gate)” value was “low polyreactivity”.
In the case of “QVQLVESGGGLVQAGGSLRLSCAASGIIFTVYTMGWYRQAPGKERELVAAITTNGGSTYYADSVKGRFTISRDNAKNTVYLQMNSLKPEDTAVYYCAADYPYKPITYDYWGQGTQVTVSS” it was “low polyreactivity”; in that of “QVQLVESGGGLVQAGGSLRLSCAASGRTFGLYAMGWYRQAPGKERELVAAISYSGGRTYYADSVKGRFTISRDNAKKTVYLQMNILKPEDTAVYYCNKAWFRYYYYRFDYWGLGTQVTVSS”, “high polyreactivity”; in that of “QVQLVESGGGLVQAGGSLRLSCAASGLTFGIYAMGWYRQAPGKERELVATISWRGGSTYYADSVKGRFTISRDNAKNTVYLQMNSLKPEDTAVYYCNADNEYRLGYWDDSCGQGTQVTVSS”, “low polyreactivity”.
In the case of “QVQLVESGGGLVQAGGSLRLSCAASGRTFRNNAMGWYRQAPGKEREFVAVISNTGGSTYYADSVKGRFTISRDNAKNTVYLQMNSLKPEDTAVYYCAVRPRYSQYYYWGQGTQVTVSS” it was “high polyreactivity”; in that of “QVQLVESGGGLVQAGGSLRLSCAASGSIFFNTMGWYRQAPGKERELVAAISRSGGSTYYADSVKGRFTISRDNAKNTVYLQMNSLKPEDTAVYYCNALRWSQYTYSSRLGHFDSWGQGTQVTVSS”, “high polyreactivity”; in that of “QVQLVESGGGLVQAGGSLRLSCAASGFTFTAYAMGWYRQAPGKERELVAAINWSGSRTYYADSVKGRFTISRDNAKNTVYLQMNSLKPEDTAVYYCNTATSKSSYRHYDYWGQGTQVTVSS”, “high polyreactivity”.
Consider “QVQLVESGGGLVQAGGSLRLSCAASGLILAPNAMGWYRQAPGKERELVAAITFRGVRTYYADSVKGRFTISRDNEKNTVYLQMNSLKPEDTAVYYCAAAVSKHYPYNYWGQGTQVSVSS”, for which the “polyreactivity (PSR sort gate)” value is recorded as “high polyreactivity”.
Consider “QVQLVDSGGGLVQAGGSLRLSCAASGRTFIFYAMGWSRQAPGKERELVAAISSGGSTDYADSVKGRFTISRDNAKNTVYLQMNSLKPEDTAVYFCKADTFQYPSTYDYWGQGNQVTVSS”, for which the “polyreactivity (PSR sort gate)” value is on record as “low polyreactivity”.
In the case of “QVQLVESGGVLVQAGGSLRLSCAASGRTFFNYAMGWYRQAPGKESEFVASISWSDVITYYADSVKGRFTISRDNAKNTVYLQMNSLKQEDTAVYYCAASKVGGGEEYWGQGTQVTVSS” it was “low polyreactivity”; in that of “QVQLVESGGGLVQAGGSLRLSCAASGLIFKKYTMGWYRQAPGKERELVASISKSGGSTYYADSVKGRFTISRDNAKNTVYLLMNSLKPDDTAVYYCAVGSTDRVSAQGSYFTYDYWGQGTQVNVSS”, “low polyreactivity”; in that of “QVDLVASGGGLVQAGGSLRLSCAASGNIFANYAMGSYRQAPGKERELVAAIRWSASRTYYADSVKARFTISRDNAKNSVYFQLNSLKPEDTAVYYCAATIYTFWDYYYDYWGQGTQVTVSW”, “high polyreactivity”.
“QVQLVESGGGLVQAGGSLRLSCAASGSIFLVYALGWYRQAPGKERELVATITRGGGTYYADSVKGRFTISGDNAKNTVYLQMNSLKPEDTAVSYCAYPLSRTWGNYLAWSYPRDDSWGQGTQVTVSS”: the “polyreactivity (PSR sort gate)” value is on record as “high polyreactivity”.
With “QVQLVESGGGLVQAGGSLRLSCAASGSIFLKYVMGWYRQAPGKERELVAAISFRSGSTYYADSVKGRFTISRDNAKNTVYLQMNSLKPEDTAVYYCAADAWRSYGYRAYDYWGQGTQVTVSS” the entry was “high polyreactivity”; with “QVQIVESGGGLVQAGGSLRLSCAASGRTFTAYAMGWYRQAPGKERELVAAITTSGGTTYYADSVKGRFTISRDNAKNTVYLQMKSLKPEDTAVYYCAADVVVSWWLIYDYWGQGTQVTVSS”, “low polyreactivity”.
Consider “QVQLVESGGGLVQAGGSLRLSCAASGFIFTGYTMGWYRQAPGKERELVARISSGDSTKYADSVKGRFTISRDNAKNNVYLQMNSLKPEDTAVYYCAAYIRNARNGTTYDYWGQGTQVTVSS”, for which the “polyreactivity (PSR sort gate)” value is given as “high polyreactivity”.
On to “QVQLVESGGGLVQGGGSLRLSCAASGSTFWANAMGWYRQATGKERELVAGITWNAGSTYYADSVKGRFTISRDNAKNPVYLQMNRLKPEDTAVFYCAASYHFQGWGPGYNSWGQGTQVTVSS”, for which the “polyreactivity (PSR sort gate)” value is on record as “low polyreactivity”.
With “QVQLVESGGGLVQAGGSLRLSCDASGSIFKYYAMGWYRQAPGKEREWVAAITIGGNTNYADSVKGRFTISRDNAKNTVYLQMNSLKPEDTAVYYCATGGYYSAIVYGGYDYWGQGTQVTVSS” the entry was “low polyreactivity”; with “QVQLVESGGGLLQAGGSLRLSCAASGSTFDYYVMGWYRQAPGKERELVAAISHNAGSTYYADSVKGRFTISRDNAKNTVYLQMNSLKPEDTAVYYCAAPDYRNGVRYPLDYWGQGTQVTVSS”, “low polyreactivity”.
In the case of “QVQLVESGGGLVQARGSLSLSCAASGSIFYYNAIGWYRQPPGKERELVATITSAVSTNYADSVKGRFTISRANAKNPVYLQMNSLKPEDTAVYYCAADDYQVQYDYWGQGTQVTVSS” it was “low polyreactivity”.
Take “QVQLVESGGGLVQAGGSLRLSCAASGRTFSYYTMGWSRQAPGKERELVAAISWSGGNTYYADSVKGRFTISRDNAKNTVYLQMNSLKPEDTAVYYCAARSVYGSYSGYDYWGQGTQVTVSS”: the “polyreactivity (PSR sort gate)” value is listed as “high polyreactivity”.

Source of the values: the nanobody polyreactivity screen of Harvey et al. (2022).
